This experiment has as its target T1, MOG35-55 peptide on I-Ab (mouse).
T1 peptide: GWYRSPFSRVV
The experiment is described as follows: activation reporter or marker.

B1: EAE2-CD4 (TCR)
alpha TRAV12-1 TRAJ23 CDR3: CALRNYNQGKLIF
beta TRBV16 TRBJ1-4 CDR3: CASSLDQGWDERLFF
Take B1: the binding result is reported as “recognises”.

B2: EAE3-CD4 (TCR)
alpha TRAV14D-1 TRAJ43 CDR3: CAASGANNNNAPRF
beta TRBV3 TRBJ2-5 CDR3: CASSLEGHQDTQYF
Take B2: the binding result is “recognises”.

Source of the values: publication PMC7145319 (2019).
